Reference: CN107793480A (SHANGHAI JIBEI BIOLOGICAL TECH CO LTD, dated 2018)

T1: CD19-His (human, UniProt P15391 20-291)
T1 construct: Amine-coupled to AR2G biosensors for BLI; also called CD19-His抗原; not shown: His tag
T1 sequence (looked up): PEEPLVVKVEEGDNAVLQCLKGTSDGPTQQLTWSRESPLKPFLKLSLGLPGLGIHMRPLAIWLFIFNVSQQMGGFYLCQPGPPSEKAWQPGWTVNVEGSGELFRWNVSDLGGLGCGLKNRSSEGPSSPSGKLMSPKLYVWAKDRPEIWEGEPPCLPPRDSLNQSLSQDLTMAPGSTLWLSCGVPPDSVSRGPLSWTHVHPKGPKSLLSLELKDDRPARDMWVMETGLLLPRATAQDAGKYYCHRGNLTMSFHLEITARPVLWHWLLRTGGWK

T2: CD19 on Raji cells (human, UniProt P15391 20-556)
T2 construct: whole, on cells; also called Raji细胞(CD19+)
T2 sequence (looked up): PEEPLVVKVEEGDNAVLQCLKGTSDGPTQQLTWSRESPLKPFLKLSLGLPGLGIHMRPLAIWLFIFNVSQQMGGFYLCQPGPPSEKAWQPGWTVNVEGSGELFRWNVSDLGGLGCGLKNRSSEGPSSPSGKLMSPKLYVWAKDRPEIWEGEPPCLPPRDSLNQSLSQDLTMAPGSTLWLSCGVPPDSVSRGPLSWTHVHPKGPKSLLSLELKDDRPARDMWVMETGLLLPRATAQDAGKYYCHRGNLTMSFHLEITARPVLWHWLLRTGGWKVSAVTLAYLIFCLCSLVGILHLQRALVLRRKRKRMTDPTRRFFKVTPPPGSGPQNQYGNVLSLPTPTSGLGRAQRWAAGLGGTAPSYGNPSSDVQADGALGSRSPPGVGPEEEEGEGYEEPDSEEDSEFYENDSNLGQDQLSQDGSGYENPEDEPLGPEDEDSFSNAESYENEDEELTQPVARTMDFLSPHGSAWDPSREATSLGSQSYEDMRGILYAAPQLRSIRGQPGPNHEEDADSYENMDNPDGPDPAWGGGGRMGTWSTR


Key:
[1] = target: CD19 (antigen of the phage competition ELISA) (human) (UniProt P15391); assay: phage competition ELISA on CD19; competitor 3ug/ml FMC63mIgG2a, anti-mouse Fc detection
CD19-His = target: T1, CD19-His; assay: BLI (ForteBio Octet), CD19-His amine-coupled to AR2G sensor, scFv-hIgG1 in solution
CD19 on Raji cells [2] = target: T2, CD19 on Raji cells; assay: flow cytometry on Raji cells, scFv-hIgG1, all four in one experiment
CD19 on Raji cells [3] = target: T2, CD19 on Raji cells; assay: flow cytometry on Raji cells, anti-human IgG Fc-PE, MFI against concentration

| Molecule | Response (CD19-His) | EC50 (CD19 on Raji cells [2]) [µg/mL] | EC50 (CD19 on Raji cells [3]) [µg/mL] | other results |
| --- | --- | --- | --- | --- |
| NC (negative control in the phage ELISAs) |  |  |  | Emax(最大抑制率) [1]: 19% |
| NC (negative control in the scFv-hIgG1 BLI table) | 0.09 |  |  |  |
| 7E11-hIgG1 (Fc fusion, not shown: human IgG1 Fc (hIgG1Fc) from vector pGCIgGH1) EIVMTQSPATLSLSPGERATLSCRASQDISKYLNWYQQKPGQAPRLLIYHTSRLHSGIPARFSGSGSGTDYTLTISSLQPEDFAVYFCQQGKTFPLTFGQGTKLEIKGGGGSGGGGSGGGGSQVQLQESGPGLVKPSETLSLTCTVSGFSLEDYGVSWIRQPPGKGLEWIGVIWGSETTYYNSSLKSRVTISKDNSKNQVSLKLSSVTAADTAVYYCAKHYYYGGSYAMDYWGQGTLVTVSS |  | 0.36 |  |  |
| C2146-hIgG1 (Fc fusion, also called C2146 scFv-hIgG1; not shown: human IgG1 Fc (hIgG1Fc) from vector pGCIgGH1) EIVMTQSPATLSLSPGERATLSCRASQDISKYLNWYQQKPGQAPRLLIYHTSRLHSGIPARFSGSGSGTDYTLTISSLQPEDFAVYFCQQGNTLPYTFGQGTKLEIKGGGGSGGGGSGGGGSQVQLQESGPGLVKPSETLSLTCTVSGVSLPDYGVSWIRQPPGKGLEWIGVIWGSETTYYNSSLKSRVTISKDNSKNQVSLKLSSVTAADTAVYYCAKHYYYGGSYAMDYWGQGTLVTVSS |  | 2.63 |  |  |
| 4B10-hIgG1 (Fc fusion, Secreted scFv-hIgG1Fc fusion from 293 cells, protein A purified; Junction between scFv and Fc not described; also called 4B10 scFv-hIgG1Fc融合蛋白; not shown: human IgG1 Fc (hIgG1Fc) from vector pGCIgGH1) EVKLQESGPGLVAPSQSLSVTCTVSGFSLEDYGVSWIRQPPRKGLEWLGVIWGSETTYYNSALKSRLTIIKDNSKSQVFLKMNSLQTDDTAIYYCAKHYYYGGSYAMDYWGQGTSVTVSSGGGGSGGGGSGGGGSDIQMTQTTSSLSASLGDRVTISCRASQDISKYLNWYQQKPDGTVKLLIYHTSRLHSGVPSRFSGSGSGTDYSLTISNLEQEDIATYFCQQGNTLPYTFGGGTKLEIT | 0.35 |  | 0.16 | koff (CD19-His): 0.000895 s⁻¹ |
| C21-hIgG1 (Fc fusion, also called 4B10&8A10组合突变; not shown: human IgG1 Fc (hIgG1Fc) from vector pGCIgGH1) EVKLQESGPGLVAPSQSLSVTCTVSGFSLEDYGVSWIRQPPRKGLEWLGVIWGSETTYYNSALKSRLTIIKDNSKSQVFLKMNSLQTDDTAIYYCAKHYYYGGSYAMDYWGQGTSVTVSSGGGGSGGGGSGGGGSDIQMTQTTSSLSASLGDRVTISCRASQDISKYLNWYQQKPDGTVKLLIYHTSRLHSGVPSRFSGSGSGTDYSLTISNLEQEDIATYFCQQGKTFPLTFGGGTKLEIT |  | 0.23 | 0.09 |  |
| 8A10-hIgG1 (Fc fusion, Secreted scFv-hIgG1Fc fusion from 293 cells, protein A purified; also called 8A10 scFv-hIgG1Fc融合蛋白; not shown: human IgG1 Fc (hIgG1Fc) from vector pGCIgGH1) EVKLQESGPGLVAPSQSLSVTCTVSGVSLPDYGVSWIRQPPRKGPEWLGVIWGSETTYYNSALKSRLTIIKDNSKSQVFLKMNSLQTDDTAIYYCAKHYYYGGSYAMDYWGQGTSVTVSSGGGGSGGGGSGGGGSDIQMTQTTSSLSASLGDRVTISCRASQDISKYLNWYQQKPDGTVKLLIYHTSRLHSGVPSRFSGSGSGTDYSLTISNLEQEDIATYFCQQGKTFPLTFGGGTKLEIT | 0.418 |  | 0.13 | koff (CD19-His): 0.000913 s⁻¹ |
